Laboratory results reported in publication PMC5707354 (Nature Communications, 2017).
Each block holds one molecule with its values, some of them ahead of it.

What was measured:
[1] = target: N-terminal tail domain of myosin VI (NMVITAIL 814-1060) (human); test: fluorescence polarisation; fluorescence anisotropy; unlabelled protein titrated against the FITC-labelled partner (NMVITAIL against FITC-CBD and CBD against FITC-NMVITAIL); 25 C, 50 mM Tris-HCl pH 7.5, 150 mM NaCl, 1 mM DTT
NDP52 [2] = target: T1, NDP52 (Human, UniProt Q13137 1-446); test: FRET or BRET; FITC-MVI_TAIL constructs and Alexa555-NDP52 (1 uM); 25 C, 50 mM Tris-HCl pH 7.5, 150 mM NaCl, 1 mM DTT
T1 sequence: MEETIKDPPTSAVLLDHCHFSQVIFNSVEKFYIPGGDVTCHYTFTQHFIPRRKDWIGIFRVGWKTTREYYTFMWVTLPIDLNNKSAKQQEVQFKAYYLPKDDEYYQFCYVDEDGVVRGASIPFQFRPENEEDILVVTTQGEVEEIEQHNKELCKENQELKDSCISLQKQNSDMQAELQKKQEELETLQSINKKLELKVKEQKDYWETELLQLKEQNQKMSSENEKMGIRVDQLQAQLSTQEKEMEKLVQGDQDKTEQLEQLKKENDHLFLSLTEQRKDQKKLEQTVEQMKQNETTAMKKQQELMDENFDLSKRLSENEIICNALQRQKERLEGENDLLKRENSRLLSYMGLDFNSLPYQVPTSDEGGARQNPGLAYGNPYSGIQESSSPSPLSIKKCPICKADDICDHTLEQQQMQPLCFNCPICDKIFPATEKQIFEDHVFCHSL

[3] = target: Myosin VI tail (MVITAIL 814-1253) (human); test: FRET or BRET; AF555-labelled pool titrated against the FITC-labelled pool of the same construct, no additive; monomer to dimer; 25 C, 50 mM Tris-HCl pH 7.5, 150 mM NaCl, 1 mM DTT
[4] = target: Myosin VI tail (MVITAIL 814-1253) (human); test: FRET or BRET; AF555-labelled pool titrated against the FITC-labelled pool of the same construct in the presence of 20 uM NDP52; monomer to dimer; 25 C, 50 mM Tris-HCl pH 7.5, 150 mM NaCl, 1 mM DTT
[5] = target: Myosin VI tail (MVITAIL 814-1253) (human); test: FRET or BRET; AF555-MVITAIL titrated against FITC-MVITAIL in the presence of 20 uM NDP52 and DNA; monomer to dimer; 25 C, 50 mM Tris-HCl pH 7.5, 150 mM NaCl, 1 mM DTT
[6] = target: Myosin VI tail (MVITAIL 814-1253) (human); test: FRET or BRET; AF555-MVITAIL and FITC-MVITAIL in the presence of 20 uM DNA; monomer to dimer; 25 C, 50 mM Tris-HCl pH 7.5, 150 mM NaCl, 1 mM DTT
NDP52 [7] = target: T1, NDP52
[8] = target: Full-length myosin VI (non-insert isoform), recombinant, co-expressed with calmodulin (human | Xenopus) (UniProt Q9UM54)
[9] = target: Cargo binding domain of myosin VI (CBD 1060-1253) (human); test: fluorescence polarisation; fluorescence anisotropy; unlabelled protein titrated against the FITC-labelled partner (NMVITAIL against FITC-CBD and CBD against FITC-NMVITAIL); 25 C, 50 mM Tris-HCl pH 7.5, 150 mM NaCl, 1 mM DTT
[10] = target: Cargo binding domain of myosin VI (CBD 1060-1253) (human); test: FRET or BRET; Alexa555-NMVITAIL titrated to FITC-CBD (1 uM); 25 C, 50 mM Tris-HCl pH 7.5, 150 mM NaCl, 1 mM DTT; quadratic binding fit
[11] = target: N-terminal tail domain of myosin VI (NMVITAIL 814-1060) (human); test: FRET or BRET; AF555-labelled pool titrated against the FITC-labelled pool of the same construct, no additive; monomer to dimer; 25 C, 50 mM Tris-HCl pH 7.5, 150 mM NaCl, 1 mM DTT
CBD = CBD (Human, UniProt Q9UM54-5 1060-1253); test: fluorescence anisotropy; FAM-DNA 50 nM; assay buffer, salt, pH and temperature not given in the material (duplex annealing in water or 50 mM Tris-HCl pH 7.5, 150 mM NaCl, 3 mM MgCl2); conditions: protein: recombinant, tags: His-tag (pET28)
MVITAIL(W1221A) = MVITAIL(W1221A) (Human, UniProt Q9UM54-5 814-1253, W1221A); test: as above; conditions: protein: recombinant; tags: His-tag (pET151), TEV-cleaved; label: 3' FAM on strand A; blunt
MVITAIL(W1221A), sequence (Q9UM54 other isoform, or with tags, fused parts or gaps W1221A | W1221A W1221A): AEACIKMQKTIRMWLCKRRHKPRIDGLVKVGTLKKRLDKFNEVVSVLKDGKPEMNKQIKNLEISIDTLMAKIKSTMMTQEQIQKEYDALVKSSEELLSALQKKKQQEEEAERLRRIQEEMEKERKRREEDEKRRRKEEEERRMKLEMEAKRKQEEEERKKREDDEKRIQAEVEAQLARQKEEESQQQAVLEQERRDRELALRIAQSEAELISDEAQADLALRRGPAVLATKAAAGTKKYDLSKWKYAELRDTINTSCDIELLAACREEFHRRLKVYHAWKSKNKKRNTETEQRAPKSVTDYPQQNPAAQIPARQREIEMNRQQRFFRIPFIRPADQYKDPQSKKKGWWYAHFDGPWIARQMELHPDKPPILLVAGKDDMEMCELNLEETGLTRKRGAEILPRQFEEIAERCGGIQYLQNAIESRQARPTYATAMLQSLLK

MVITAIL = MVITAIL (Human, UniProt Q9UM54-5 814-1253); test: as above; conditions: protein: recombinant; tags: His-tag (pET151), TEV-cleaved; label: 3' FAM on strand A; blunt
MVITAIL, sequence (Q9UM54 other isoform, or with tags, fused parts or gaps): as the sequence (Q9UM54 other isoform, or with tags, fused parts or gaps W1221A | W1221A W1221A) above, with A408W counted along it

NDP52 [12] = target: T1, NDP52; test: fluorescence intensity titration; FAM-DNA 50 nM; assay buffer, salt, pH and temperature not given in the material (duplex annealing in water or 50 mM Tris-HCl pH 7.5, 150 mM NaCl, 3 mM MgCl2); conditions: protein: recombinant; tags: His-tag (pET151), TEV-cleaved; chain copies: 2; label: 3' FAM on strand A; blunt
NDP52 (recombinant) = target: T2, NDP52 (recombinant) (UniProt Q13137 1-446, Alexa Fluor 555 label in the FRET titration with MVI_TAIL; unlabelled where added as a third component); test: FRET or BRET; FITC-MVI_TAIL constructs and Alexa555-NDP52 (1 uM); 25 C, 50 mM Tris-HCl pH 7.5, 150 mM NaCl, 1 mM DTT; conditions: both partners purified
T2 construct: NDP52 (SKICH domain, coiled-coil, two zinc fingers); also called Alexa555-NDP52; source: E. coli BL21 DE3, purified (HisTrap, Superdex 200)
T2 sequence (looked up): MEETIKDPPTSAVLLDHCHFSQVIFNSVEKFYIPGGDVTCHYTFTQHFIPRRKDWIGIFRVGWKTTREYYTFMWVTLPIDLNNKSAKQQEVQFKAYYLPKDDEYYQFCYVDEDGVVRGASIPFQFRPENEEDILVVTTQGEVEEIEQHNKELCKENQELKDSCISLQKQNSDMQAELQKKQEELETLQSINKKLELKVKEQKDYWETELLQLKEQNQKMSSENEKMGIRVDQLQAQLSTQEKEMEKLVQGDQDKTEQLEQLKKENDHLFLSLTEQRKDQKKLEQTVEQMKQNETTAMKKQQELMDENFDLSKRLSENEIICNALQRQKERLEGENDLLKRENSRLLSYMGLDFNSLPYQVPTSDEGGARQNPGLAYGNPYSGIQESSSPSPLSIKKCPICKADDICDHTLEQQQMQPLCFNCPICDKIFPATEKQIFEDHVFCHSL

[13] = target: Myosin VI tail, large insert (MVITAIL (large insert) 814-1284) (human); test: FRET or BRET; FITC-MVITAIL constructs and Alexa555-NDP52 (1 uM NDP52 by the legend of Fig. 4d); 25 C, 50 mM Tris-HCl pH 7.5, 150 mM NaCl, 1 mM DTT; quadratic binding fit
[14] = target: Myosin VI tail (MVITAIL 814-1253) (human); test: as above
[15] = target: Myosin VI tail RRL/RRA mutant (MVITAIL RRL/RRA, L1118A) (human); test: as above
[16] = target: Myosin VI tail RRL/AAA mutant (MVITAIL RRL/AAA) (human); test: as above
[17] = target: Myosin VI tail RRL/ARL mutant (MVITAIL RRL/ARL, R1116A) (human); test: as above
[18] = label: 3' FAM on strand A, blunt

- fold decrease in affinity against wild-type MVI TAIL (NDP52 [2]): 10 fold
Molecule: MVI_(TAIL) with the leucine of the RRL motif removed (RRA) (domain or fragment)

- Kd [3]: 27 µM
- Kd [4]: 2300 nM
- Kd [5]: 2500 nM
- Kd [6]: 29 µM
Molecule: Myosin VI tail (MVITAIL 814-1253) (domain or fragment)

- velocity of actin filaments in the sliding filament assay with MVI pre-incubated with / immobilised through NDP52 (0.1, 0.5 or 1 μM); two populations, 50–60 and 90 nm s^−1 (NDP52 [7]): 90 nm/s
- steady-state actin-activated ATPase rate constant of MVI, reduction on addition of NDP52 [8]: 50%
Molecule: Full-length myosin VI (non-insert isoform), recombinant, co-expressed with calmodulin (from UniProt Q9UM54-5 1-1253; P0DP33 1-149) (complex)

- Kd [9]: 4 µM
- Kd [10]: 4.5 µM
- Kd [11]: 3.1 µM
Molecule: N-terminal tail domain of myosin VI (NMVITAIL 814-1060) (domain or fragment)

- fold reduction of binding against wild-type MVI_TAIL (NDP52 (recombinant)): 4 fold
B4: MVI_(TAIL) (large insert) (domain or fragment)
chain: AEACIKMQKTIRMWLCKRRHKPRIDGLVKVGTLKKRLDKFNEVVSVLKDGKPEMNKQIKNLEISIDTLMAKIKSTMMTQEQIQKEYDALVKSSEELLSALQKKKQQEEEAERLRRIQEEMEKERKRREEDEKRRRKEEEERRMKLEMEAKRKQEEEERKKREDDEKRIQAEVEAQLARQKEEESQQQAVLEQERRDRELALRIAQSEAELISDEAQADLALRSLDSYPVTSKNDGTRPKMTPEQMAKEMSEFLSRGPAVLATKAAAGTKKYDLSKWKYAELRDTINTSCDIELLAACREEFHRRLKVYHAWKSKNKKRNTETEQRAPKSVTDYAQQNPAAQIPARQREIEMNRQQRFFRIPFIRPADQYKDPQSKKKGWWYAHFDGPWIARQMELHPDKPPILLVAGKDDMEMCELNLEETGLTRKRGAEILPRQFEEIWERCGGIQYLQNAIESRQARPTYATAMLQSLLK
modifications: FITC label

- Kd [13]: 9.8 µM
- Kd [14]: 3.2 µM
- Kd [15]: 21 µM
- Kd [16]: 63 µM
- Kd [17]: 4.6 µM
B5: NDP52 (1-end) (natural protein)
chain: MEETIKDPPTSAVLLDHCHFSQVIFNSVEKFYIPGGDVTCHYTFTQHFIPRRKDWIGIFRVGWKTTREYYTFMWVTLPIDLNNKSAKQQEVQFKAYYLPKDDEYYQFCYVDEDGVVRGASIPFQFRPENEEDILVVTTQGEVEEIEQHNKELCKENQELKDSCISLQKQNSDMQAELQKKQEELETLQSINKKLELKVKEQKDYWETELLQLKEQNQKMSSENEKMGIRVDQLQAQLSTQEKEMEKLVQGDQDKTEQLEQLKKENDHLFLSLTEQRKDQKKLEQTVEQMKQNETTAMKKQQELMDENFDLSKRLSENEIICNALQRQKERLEGENDLLKRENSRLLSYMGLDFNSLPYQVPTSDEGGARQNPGLAYGNPYSGIQESSSPSPLSIKKCPICKADDICDHTLEQQQMQPLCFNCPICDKIFPATEKQIFEDHVFCHSL
modifications: Alexa Fluor 555 label (site not stated)

Second part, the molecule before the results:

Molecule: Cargo binding domain of myosin VI (CBD 1060-1253) (domain or fragment)
- Kd [1]: 4.2 µM

B1: ds40 (dsDNA)
DNA 1: TTAGTTGTTCGTAGTGCTCGTCTGGCTCTGGATTACCCGC
DNA 2: GCGGGTAATCCAGAGCCAGACGAGCACTACGAACAACTAA
- Kd (CBD; [18]): 100 nM
- Kd (MVITAIL(W1221A)): 300 ± 30 nM
- Kd (MVITAIL): 2500 nM
- Kd (NDP52 [12]): 80 ± 25 nM

B2: ss40 (ssDNA)
DNA: TTAGTTGTTCGTAGTGCTCGTCTGGCTCTGGATTACCCGC
- Kd (CBD; label: 3' FAM): 120 ± 35 nM

B3: dT20 (ssDNA)
DNA: TTTTTTTTTTTTTTTTTTTT
- Kd (CBD): 120 ± 25 nM

B6: ds15 (15 bp) (dsDNA)
DNA 1: TTAGTTGTTCTCTGG
DNA 2: CCAGAGAACAACTAA
- Kd (CBD; [18]): 500 ± 45 nM

B7: ss20 (ssDNA)
DNA: TCTGGCTCTGGATTACCCGC
- Kd (CBD; label: 3' FAM): 110 ± 35 nM
